The values that follow come from US5310882A, “Somatotropins with alterations in the α-helix 3 region” (priority 1990, dated 1994).

Series [1] is described as follows: Solution stability profile of rpST mutant proteins (solubility in vitro at 43° C.). Type of series: physicochemical. As to conditions: pH 7.4. On the procedure: The procedure described to determine stability profiles is as follows. […] This is filtered through a millipore sterile Millex-0.22 μm filter unit and 0.1 ml aliquots placed into tubes. These are placed in a 43° C. oven and removed at the required intervals. The contents are then diluted with phosphate buffered saline. The supernatant is assayed for monomer and dimer content by HPLC. A mass balance is done. Any precipitated material is recorded. Results are compared with the initial concentrations and a stability profile documented.

In series [2] the test system is hypophysectomized (hypox) rat. In words: Hypox rat test for growth enhancement. As to conditions: growth over a period such as 10 days; relative to rpST positive control. The format is in vivo. On the procedure:
The efficacy of the recombinant animal somatotropin derivatives of the present invention for altering the growth rate of animals is determined utilizing the hypophysectomized (hypox) rat assay. […] The response measured is growth over a period of time such as 10 days and is presented in Table IV as percent of the biological activity of the rpST positive control, which is included in every trial.

In series [3] the test system is somatotropin receptor from purified liver membranes. In words: Liver radio-receptor assay (RRA), competition with 125I-rpST. The following applies: competition with 125I-rpST for binding; percent rpST binding.

Changes are numbered by the printed parent chain. Names and notes keep the numbering of the source.

B1: L115A + A34: rpST with leucine 115 changed to alanine, A34 background (protein, UniProt P01248 27-216, looked up, variant L115A)
Somatotropin: FPAMPLSSLFANAVLRAQHLHQLAADTYKEFERAYIPEGQRYSIQNAQAAFCFSETIPAPTGKDEAQQRSDVELLRFSLLLIQSWLGPVQFLSRVFTNSLVFGTSDRVYEKLKDAEEGIQALMRELEDGSPRAGQILKQTYDKFDTNLRSDDALLKNYGLLSCFKKDLHKAETYLRVMKCRRFVESSCAF
modifications: A34 background
notes: rpST with leucine 115 changed to alanine, A34 background
Take B1: in series [1], the “% Soluble” value came to 0%. Further, the Hypox rat in series [2] is 88.6% of the activity of the. Moreover, in series [3], the RRA is 163% of the activity observ.

B2: L118A + A34: rpST with leucine 118 changed to alanine, A34 background (protein, UniProt P01248 27-216, looked up, variant L118A)
Somatotropin: B1 Somatotropin with L92A, A115L
modifications: A34 background
notes: rpST with leucine 118 changed to alanine, A34 background
B2: the “% Soluble” value in series [1] came out at 10%. For the same molecule, the Hypox rat in series [2] is 64% of the activity of the. Also, the RRA in series [3] is listed as 49.5% of the activity observ.
